Consider seven molecules from patent US20210347873A1 (SHANGHAI PHARMAEXPLORER, published 2021).

What is called Kd is the free concentration of one partner at which half of the binding sites on the other are occupied at equilibrium, for simple one-to-one binding. High values mean a looser complex, low ones a tighter complex. In general, koff refers to the first-order rate constant of dissociation. The kon is a measure of how fast the partners come together. A low value points to slow association.

Experiment [1] deals with T1, hBLyS-ECD (His-tagged extracellular domain of human BLyS protein, Ala134-Leu285) (human, UniProt Q9Y275 134-285).
T1 construct: Expressed in HEK293, purified on Ni column; also called immunogen
As to the kind of experiment: SPR (Biacore X100), antibody captured by anti-human Fc on CM5, hBLyS-ECD injected. As for the experimental part: Affinity constants were determined using a Biacore X100 instrument (purchased from GE Healthcare). Detailed operations and methods referred to the instrument manuals and detailed methods provided by manufacturers, specifically: determining affinity constant using a CM5 chip (Sensor Chip CM5, purchased from GE Healthcare). […] Then 1 M ethanolamine was injected in chip to block the remaining activation sites. After the antibody to be tested (i.e., the human BLyS antibody prepared by Embodiment 2) was captured by chip, 7 different gradient of immunogen dilutions (i.e., hBLyS-ECD) prepared by Embodiment 1 were injected and the binding and dissociation of antigen with antibody was detected by a Biacore instrument. The dissociation constant and binding constant were then fitted by Biacore X100 Evaluation Software 2.0, while the affinity constant was the ratio of dissociation constant to binding constant.

Experiment [2] deals with T2, biotinylated hBLyS-ECD (human, UniProt Q9Y275 134-285, biotinylated with Biotin-X-X-NHS (molar ratio 7:1), sites not stated).
T2 construct: The hBLyS-ECD of Embodiment 1 after biotinylation (Embodiment 2); also called biotinylated immunogen; BLyS protein; not shown: His tag of the pCPC vector
As to the kind of experiment: ELISA, biotinylated hBLyS-ECD captured on streptavidin; antibody 0.00427 nM. As for the experimental part:
Streptavidin was first diluted to a final concentration of 1.0 μg/mL with PBS, and then 50 μL of diluted streptavidin per well was aliquoted into 96-well ELISA plate, which was subsequently sealed with plastic film and incubated at 4° C. overnight. On the next day the plate was washed four times with the plate washing buffer [PBS buffer containing 0.05% (v/v) Tween20] and added with the blocking solution [PBS buffer containing 0.05% (v/v) Tween20 and 1% (w/w) BSA] and blocked for 2 hours at 37° C. The blocking solution was removed, the biotinylated hBLyS-ECD prepared in Embodiment 2 was diluted with PBS to a final concentration of 50 ng/mL and then aliquoted into the 96-well ELISA plate at 50 μL per well and incubated for 1 hour at 37° C. After rinsing the plate four times with the plate washing buffer [PBS buffer containing 0.05% (v/v) Tween20], 100 μl of the purified lead antibody harvested in Embodiment 1 and 2 was pipetted into each well. After incubation for 1 hour at 37° C., the plate was rinsed four times with the plate washing buffer [PBS buffer containing 0.05% (v/v) Tween20]. HRP-labeled (horseradish peroxidase) secondary antibody (purchased from Sigma) was added in and incubated at 37° C. for 1 hour. The plate was then rinsed four times with the plate washing buffer [PBS buffer containing 0.05% (v/v) Tween20]. 100 μL of TMB substrate was aliquoted into each well and after incubation for 5 minutes at room temperature, 100 μL of stop solution (1.0 N HCl) was aliquoted into each well. A₄₅₀ₙₘ values were read via an ELISA plate reader (SpectraMax M5e purchased from Molecular Devices) and the results were shown in FIGS. 5A-5B and Table 10.
For orientation: ELISA stands for enzyme-linked immunosorbent assay.

Experiment [3] concerns the target T2, biotinylated hBLyS-ECD. The experiment in a line: receptor-ligand blocking ELISA: BAFF R coated, biotinylated hBLyS-ECD added with titrated antibody, HRP-avidin; blocked partner: BAFF R. The procedure: BAFF R (purchased from R & D Systems) was aliquoted into 96-well ELISA plate at 50 ng per well, and the plate was sealed with plastic film and incubated overnight at 4° C. On the next day the plate was washed four times with the plate washing buffer [PBS buffer containing 0.05% (v/v) Tween20] and added with blocking solution [PBS buffer containing 0.05% (v/v) Tween20 and 1% (w/w) BSA], then blocked for 1 hour at room temperature. The blocking solution was removed and 50 μL per well of the lead antibodies prepared in Embodiment 1 and 2 were added followed by the addition of 50 μL per well of the biotinylated hBLyS-ECD prepared in Embodiment 2. After incubation for 1 hour at 37° C., the plate was washed four times with the plate washing buffer [PBS buffer containing 0.05% (v/v) Tween20]. 100 μL per well of HRP-labeled (horseradish peroxidase) avidin (purchased from Sigma) was added and incubated at 37° C. for 1 hour. The plate was then washed four times with the plate washing buffer [PBS buffer containing 0.05% (v/v) Tween20]. 100 μL of TMB substrate was aliquoted into each well and after incubation for 5 minutes at room temperature, then 100 μL of stop solution (1.0 N HCl) was aliquoted into each well. A₄₅₀ₙₘ values were read with an ELISA plate reader (SpectraMax 384plus, Molecular Device) and the results were shown in FIGS. 9A-9B and Table 15. It was shown in Table 15 that the binding of BLyS protein to its receptor BAFF R could be blocked by the BLyS antibody.

T2 sequence (Q9Y275 134-285): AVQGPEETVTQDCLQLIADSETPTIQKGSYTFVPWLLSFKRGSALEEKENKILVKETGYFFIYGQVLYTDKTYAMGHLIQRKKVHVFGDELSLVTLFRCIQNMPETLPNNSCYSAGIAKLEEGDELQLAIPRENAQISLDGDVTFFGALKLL

B1: 2-1G11 (antibody, V domains shown)
VH: EVQLVESRGGVVQPGRSLRLSCAASGFTFSSYGMHWVRQAPGKGLEWVAVISYDGSNKYYADSVKGRFTISRDNSKNTLYLQMNSLRAEDAAVYYCARDRVDILTGYSIYGMDVWGQGTTVTVSS
VL: EIVMTQSPATLSLSPGERATLSCRASQSVSSYLAWYQQKPGQAPRLLIYDASKRATGIPARFSGSGSGTDFTLTISSLEPEDFAVYYCQQRSNWPLTFGGGTKVEIK
notes: From a human naive scFv phage library; also called human BLyS antibody 2-1G11
Take B1: in experiment [1], the Kd was found to be 0.637 nM, the koff worked out at 0.000946 s⁻¹ and the kon turned out to be 1.48e+06 M⁻¹ s⁻¹.

B2: L9G7 (antibody, human IgG1, V domains shown)
VH: QIQLVQSGAEVKKPGASVKVSCKASGYTFTSYGISWVRQAPGQGLEWMGWISAYNGNTNYAQKLQGRVTMTTDTSTSTAYMELRSLRSDDTAVYYCARTYYDILTGYYYYGMDVWGQGTTVTVSS
VL: EIVLTQSPGTLSLSPGERATLSCRTSQSVDTYLAWYQQKPGQAPRLLIYDASNRATGIPARFSGSGSGTDFTLTISSLEPEDFAVYYCQQRSNWPLTFGGGTKVEIK
Turning to B2, the OD450 nm in experiment [2] amounted to 0.0853. Further, the “IC50 (read off the curve)” value in experiment [3] is around 0.7 nM.

B3: L9G7 (antibody, V domains shown)
VH: QIQLVQSGAEVKKPGASVKVSCKASGYTFTSYGISWVRQAPGQGLEWMGWISAYNGNTNYAQKLQGRVTMTTDTSTSTAYMELRSLRSDDTAVYYCARTYYDILTGYYYYGMDVWGQGTTVTVSS
VL: EIVLTQSPGTLSLSPGERATLSCRTSQSVDTYLAWYQQKPGQAPRLLIYDASNRATGIPARFSGSGSGTDFTLTISSLEPEDFAVYYCQQRSNWPLTFGGGTKVEIK
notes: From a human naive scFv phage library; also called human BLyS antibody L9G7
In experiment [1], B3 registered a Kd of 0.525 nM, a koff of 0.000244 s⁻¹ and a kon of 465000 M⁻¹ s⁻¹.

B4: L1D12 (antibody, V domains shown)
VH: QVQLVQSGGGLVQPGGSLRLSCAASGFTVSSNYMSWVRQAPGKGLEWVSVIYSGGSTYYADSVKGRFTISRDNSKNTLYLQMNSLRAEDTAVYYCARGFHDILTGYGMDVWGQGTTVTVSS
VL: SSELTQDPAVSVALGQTVRITCQGDSLRNYYAGWYQQKPGQAPVLVIYGKNNRPSGIPDRFSGSSSGNTASLTITGTQAEDEADYYCSSRDNSGTHLVEFGGGTKLTVL
notes: From a human naive scFv phage library; also called human BLyS antibody L1D12; LID12
On to B4, for which, in experiment [1], the Kd turned out to be 2.42 nM, the koff came to 0.00136 s⁻¹ and the kon worked out at 561000 M⁻¹ s⁻¹.

B5: L1D12 (antibody, human IgG1, V domains shown)
VH: QVQLVQSGGGLVQPGGSLRLSCAASGFTVSSNYMSWVRQAPGKGLEWVSVIYSGGSTYYADSVKGRFTISRDNSKNTLYLQMNSLRAEDTAVYYCARGFHDILTGYGMDVWGQGTTVTVSS
VL: SSELTQDPAVSVALGQTVRITCQGDSLRNYYAGWYQQKPGQAPVLVIYGKNNRPSGIPDRFSGSSSGNTASLTITGTQAEDEADYYCSSRDNSGTHLVEFGGGTKLTVL
notes: also called LID12
In the case of B5, the OD450 nm in experiment [2] turned out to be 0.135. Besides, in experiment [3], the “IC50 (read off the curve)” value is around 1 nM.

B6: 97A3C2H4 (antibody, V domains shown)
VH: EVKLVESGGGLVQPGGSLKLSCAASGFTFSTYTMSWVRQTPEKRLEWVAYISYGGGSTSYPDTVKGRFTISRDNAKNTLYLQMSSLKSEDTAIYYCTRHVTVVENSMDYWGQGTSVTVSS
VL: DILLTQSPDILSVSPGERVSFSCRASQSIGTSIHWYQQRTNGSPRLLIKYVSESFSGTPSRFSGSGSGTAFTLTINSVESEDIADYYCQQTHSWPWTFGGGTKLEIK
notes: Mouse hybridoma antibody purified on Protein G
Consider B6, for which, in experiment [2], the OD450 nm was 0.105. For the same molecule, the “IC50 (read off the curve)” value in experiment [3] was around 0.3 nM.

B7: 111D10D6G3 (antibody, V domains shown)
VH: QVQLQQPGAELVKPGASVKMSCKASGYTFTRHWITWVKQRPGQGLEWIGDIFPGSGSINYNEKFKSEATLTVEKSSSTAYMQLSSLTSEDSAVYYCARGDVDVWGTGTTVTVSS
VL: DIQMTQSPSSLSASLGERVSLTCRASQEIRGYLSWLQQKPNGTIKRLIYAASTLDSGVPKRFSATRSGSDFSLTISSLESEDFADYYCLQYASYPFTFGSGTKLEIK
notes: as for B6
Regarding B7, the OD450 nm in experiment [2] was found to be 0.082. Moreover, in experiment [3], the “IC50 (read off the curve)” value is around 0.1 nM.
